Measurements published in patent publication US20260176342A1 (CITRYLL B V, published 2026).
Square brackets hold non-standard residues; d marks the D form. Ends that are not written are not given here. Cit = NC(=O)NCCC[C@H](N)C(=O)O

Key:
[1] = target: T1, citrullinated histone 4-derived peptide (SEQ ID NO: 20), C-terminal biotin (human, citrulline at position 3; biotin at the C-terminus); assay: Octet RED96 off-rate screen, biotinylated peptide on streptavidin biosensors, antibody 72 nM, 30 C
T1 construct: Immobilized on streptavidin biosensors (Octet RED96); also called H4-derived peptide; N-terminal histone 4 peptide
T1 peptide: SGXGKGGKGLGK
Description: Off-rate screening of the isomerization-mutated antibodies was performed on an Octet® RED96 (biomolecule detection system) instrument (Pall ForteBio). All measurements were performed at 30° C. Streptavidin (SA) biosensors were first washed for 50 sec with PBS. 1 μg/ml N-terminal histone 2A (SEQ ID NO: 18) and histone 4 (SEQ ID NO: 20) peptides, containing both a citrulline at position 3 and a biotin at the C-terminus, were immobilized on SA biosensors for 200 sec, washed with PBS for 50 sec and excess reactive streptavidin molecules blocked with EZ-Link™ biocytin for 200 sec. After two additional 50 sec wash steps in PBS, antibodies at a concentration of 72 nM diluted in PBS were allowed to bind to the biosensors for 200 sec. Sensors were subsequently placed in PBS for 4000 sec in order to measure their dissociation rates.
Background signals generated with non-coated biosensors, which have been exposed to the various antibodies as well as signals from coated biosensors that have not been exposed to the various antibodies, have been subtracted before dissociation curves for each antibody were plotted. Both histone 2A and histone 4 dissociation rates constants (kdis×E-07 (1/s)) for each antibody were calculated applying a 1:1 interaction model (fitting local, full) using ForteBio data analysis software 8.1.

[2] = target: T2, citrullinated histone 2A-derived peptide (SEQ ID NO: 18), C-terminal biotin (human); assay: CMC ELISA, biotinylated peptide on NeutrAvidin-coated plate, anti-human-HRP, OD 450 nm, interpolated on a calibration curve
T2 construct: Captured by its biotin on NeutrAvidin plates (ELISA) or streptavidin biosensors (Octet); also called histone-derived peptide; citrullinated H2A-derived peptide
T2 peptide: SG[Cit]GKQGGKARA-biotin
Description: hMQ22.101j/e samples from week 0, 2, 4, 6 and 8, and hMQ22.101f/g samples from week 0, 3 and 6 were subjected to an in house-validated CMC ELISA. 96-well ELISA plates were coated with NeutrAvidin™ ([…]) by overnight incubation at 4° C. Wells were washed 5 times with PBS-Tween® (polysorbate) 20 (PBS-T) and blocked by a 2 hour incubation with PBS-T+1% Bovine serum albumin (BSA) at room temperature (RT). After 5 more washes with PBS-T, wells were incubated for 1 hour at RT with a histone-derived peptide (SEQ ID NO 18: SGXGKQGGKARA), containing a citrulline (X) at position 3 and a C-terminal biotin (40 ng/well) in PBS-T+0.2% BSA. After another 5 washes with PBS-T, a calibration curve made from a reference lot of hMQ22.101j/e or hMQ22.101f/g by adding to the wells starting at […] and further diluted at a 1:1 ratio until reaching a concentration of 0.66 ng/ml in PBS-T+0.2% BSA. […]
Finally, accelerated stability samples that had been incubated for 0, 2, 3, 4, 6 and 8 weeks at 37° C. were added to the same plate at a concentration of 40 ng/ml in PBS-T+0.2% BSA and incubated for 2 hours at RT. […] Wells were incubated 10 min with TMB substrate before stopping the reaction with 2 M H₂SO₄ after which the optical density was measured at wavelength of 450 nm. […]

B1: hMQ22.101j/e (antibody, V domains shown)
VH: QVQLVQSGAEVKKPGASVKVSCKASGYTFTNYGMHWVRQAPGQGLEWMGWINTYSGEATYAQKFQGRVTMTRDTSISTAYMELSRLRSDDTAVYYCLRGYTYQSFDEGGDYWGQGTLVTVSS
VL: DVVMTQSPLSLPVTLGQPASISCRSSQSLVDSDGKTYLNWFQQRPGQSPRRLIYLVSKLDSGVPDRFSGSGSGTDFTLKISRVEAEDVGVYYCWQGTHFPYTFGQGTKLEIK
notes: Full-size antibody with full-length human heavy and light chains; also called humanized therapeutic antibody with heavy chain hVH22.101j and light chain hVL22.101e; tACPA
binding result [1]: binds | binding result [2]: binds
